Assay results as given in PMC6746865, “Identification of telomerase RNAs in species of the Yarrowia clade provides insights into the co-evolution of telomerase, telomeric repeats and telomere-binding proteins”.

Molecular target: T1, Tay1p (YlTay1p) (Yarrowia lipolytica, UniProt Q6C9I6 1-406)
T1 sequence: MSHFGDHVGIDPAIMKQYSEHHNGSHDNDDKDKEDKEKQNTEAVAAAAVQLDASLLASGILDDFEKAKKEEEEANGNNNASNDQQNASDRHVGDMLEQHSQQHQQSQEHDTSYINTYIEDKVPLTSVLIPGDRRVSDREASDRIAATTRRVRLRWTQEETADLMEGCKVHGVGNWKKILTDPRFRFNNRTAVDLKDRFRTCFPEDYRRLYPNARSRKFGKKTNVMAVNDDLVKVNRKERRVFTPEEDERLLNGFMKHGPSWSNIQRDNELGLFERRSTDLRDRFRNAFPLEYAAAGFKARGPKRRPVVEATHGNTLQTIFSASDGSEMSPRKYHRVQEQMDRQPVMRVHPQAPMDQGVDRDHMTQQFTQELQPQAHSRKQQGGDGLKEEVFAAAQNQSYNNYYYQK
Experiment: EMSA; 20 mM HEPES-NaOH pH 7.3, 100 mM NaCl, 16 nM dsDNA probe (3-fold molar excess of unlabelled C strand used in annealing), 10 min at room temperature; 6% PAGE in cold 0.5x TBE
Conditions: protein: recombinant; label: 5'-32P on G strand; blunt

B1: Y. lipolytica telomeric probe YlipTEL (2 repeats) (dsDNA)
DNA 1: TTAGTCAGGGTTAGTCAGGG
DNA 2: CCCTGACTAACCCTGACTAA
B1: binds.
